Measured values reported in US20240417436A1 (BRIGHT PEAK THERAPEUTICS, published 2024).
Bridges are numbered along the chain shown (N, C = ends). [ ]: non-standard residue; d: D form. Ygp = O-(8x polyethylene glycol-amino)-tyrosine; Yn3 = O-(9x polyethylene glycol-azido)-tyrosine; hSer = N[C@@H](CCO)C(=O)O; Nle = CCCC[C@H](N)C(=O)O

Key:
[1] = biological target: T1, Avi-Tag Fc with human IL-2R beta and IL-2R gamma attached (Acrobiosystems ACRB-ILG-H82F3-25UG) (human, UniProt P14784 27-239; P31785 23-262); experiment: BLI (Octet), receptor on SAX2 sensor, IL-2 as analyte
T1 construct: bought heterodimer; also called CD122 CD132; CD122/CD132 complex
T1 sequence (looked up) 1: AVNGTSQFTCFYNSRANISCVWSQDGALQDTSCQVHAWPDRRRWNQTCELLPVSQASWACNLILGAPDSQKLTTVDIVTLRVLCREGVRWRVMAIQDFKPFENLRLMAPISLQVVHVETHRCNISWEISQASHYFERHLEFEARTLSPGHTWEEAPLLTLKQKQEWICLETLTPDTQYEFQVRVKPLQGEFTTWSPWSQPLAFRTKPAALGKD
T1 sequence (looked up) 2: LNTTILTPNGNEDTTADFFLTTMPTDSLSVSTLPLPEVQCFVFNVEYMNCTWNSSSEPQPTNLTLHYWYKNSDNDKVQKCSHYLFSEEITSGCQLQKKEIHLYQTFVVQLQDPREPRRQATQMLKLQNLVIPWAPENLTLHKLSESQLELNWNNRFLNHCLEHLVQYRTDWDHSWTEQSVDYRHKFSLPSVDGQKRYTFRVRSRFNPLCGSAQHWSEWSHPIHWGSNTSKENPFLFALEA
Method: (§1) Bilayer interferometry (BLI) assays were used to measure the binding constants between activatable IL-2 polypeptides (and activated versions thereof) to IL-2 receptor subunits or receptor complexes. BLI assays were conducted on an Octet® R8 instrument. Assay plates were 96 well, polypropylene, F-bottom (chimney well), black microplates (Greiner Bio-one, Cat. No: 655209). The biosensors were Octet® SAX2 (Sartorius, Cat. No: 18-5136). The assay buffer was 1× Kinetic Buffer (Sartorius, Cat. no: 18-5136) or Phosphate Buffered Saline (PBS) that contained 0.02% (v: v) Tween 20 (Polysorbate 20) and 0.1% (w/v) bovine serum albumin (BSA). The sensor was regenerated between measurements in 10 mM glycine pH 2.7 buffer.
(§2) Sensor attached receptors were either recombinant human IL-2 receptor beta containing a His-tag and Avi-Tag™ (R&D Systems™ #AVI10459) or an Avi-Tag™ Fc with human IL-2R beta and IL-2R gamma attached (Acrobiosystems Cat. no: ACRB-ILG-H82F3-25UG). Receptors were reconstituted from lyophilized powder to 500 μg/ml in PBS. Analytes were diluted in Kinetic buffer to 300 nM, then serially diluted to lower concentrations.

[2] = biological target: T2, recombinant human IL-2 receptor beta containing a His-tag and Avi-Tag (R&D Systems #AVI10459) (human, UniProt P14784 27-239); experiment: BLI (Octet), receptor on SAX2 sensor, IL-2 as analyte; construct CMP-145
T2 construct: bought protein, held on the Octet SAX2 sensor; also called CD122; IL-2Rβ
T2 sequence (looked up): T1 sequence (looked up) 1
Method: as §1, §2

koff [1]: 0.00117 s⁻¹
Kd [2]: 1830 nM
B1: CMP-145 (ligand)
chain: APTSSSTKKTQLQLEHLLLDLQKILNGINNYKNPKLTR[Nle]L[hSer][Yn3]KF[Ygp][Nle]PKKATELKHLQCLEEELKPLEEVL[hSer]LAQSKNFHLRPRDLISNINVIVLELKGSETTF[hSer]CEYADETATIVEFLNRWITFSQSIISTLT
modifications: disulfide 58-105; not fully specified (residue 23); also: branched 27x PEG chains on the attached KKPLGLAG peptide, places not given here
